Measurements published in the supplement of paper PMC9112550, “Optimization of the antimicrobial peptide Bac7 by deep mutational scanning” (BMC Biology, 2022).

Each sequence was assayed on Escherichia coli TOP10 (assay: shrunken log2 fold change of peptide-encoding DNA abundance (4.5 h post-induction vs induction); higher = less antimicrobial activity (less host growth inhibition)). Details: time post-induction: 4.5 h; library: site-saturation at positions 5, 18, 19, 20.
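Also: peptides expressed intracellularly from a pBAD plasmid library in pooled LB shake-flask culture, induced with 0.3% L-arabinose, DNA abundance read by NGS, three biological replicates, DESeq2 with apeglm shrinkage.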

Sequence	shrunken log2 fold change
RRIRDRPPRLPRPRPRPAEPPRP	0.288
RRIRARPPRLPRPRPRPWHIPRP	0.0256
RRIRNRPPRLPRPRPRPDSWPRP	-0.125
RRIRQRPPRLPRPRPRPCDFPRP	0.0344
RRIRSRPPRLPRPRPRPNTPPRP	-0.616
RRIRHRPPRLPRPRPRPFCFPRP	-0.215
RRIRNRPPRLPRPRPRPRADPRP	0.327
RRIRKRPPRLPRPRPRPAPKPRP	1.06
RRIRDRPPRLPRPRPRPIWCPRP	-0.0176
RRIRCRPPRLPRPRPRPEAFPRP	0.13
RRIRYRPPRLPRPRPRPVVYPRP	0.0874
RRIRSRPPRLPRPRPRPYATPRP	-0.192
RRIRGRPPRLPRPRPRPYTSPRP	-0.278
RRIRNRPPRLPRPRPRPFNMPRP	-0.149
RRIRERPPRLPRPRPRPFYPPRP	-0.834
RRIRGRPPRLPRPRPRPQWNPRP	0.0405
RRIRRRPPRLPRPRPRPPSAPRP	0.626
RRIRHRPPRLPRPRPRPNYGPRP	-0.0744
RRIRRRPPRLPRPRPRPCHEPRP	-0.0891
RRIRNRPPRLPRPRPRPEREPRP	0.256

Sequence	shrunken log2 fold change
RRIRWRPPRLPRPRPRPQIWPRP	0.0603
RRIRCRPPRLPRPRPRPIQPPRP	-0.137
RRIRVRPPRLPRPRPRPRVRPRP	0.363
RRIRDRPPRLPRPRPRPDALPRP	0.306
RRIRGRPPRLPRPRPRPWPCPRP	0.373
RRIRRRPPRLPRPRPRPEDFPRP	0.117
RRIRWRPPRLPRPRPRPEVQPRP	0.69
RRIRYRPPRLPRPRPRPHKPPRP	-0.171
RRIRDRPPRLPRPRPRPKTHPRP	0.0785
RRIRYRPPRLPRPRPRPVKVPRP	0.0182
RRIRYRPPRLPRPRPRPHQAPRP	-0.0296
RRIRLRPPRLPRPRPRPQCCPRP	0.0421
RRIRDRPPRLPRPRPRPPSAPRP	0.506
RRIRDRPPRLPRPRPRPVSAPRP	0.666
RRIRPRPPRLPRPRPRPTSDPRP	0.0712
RRIRQRPPRLPRPRPRPAAVPRP	-0.0726
RRIRIRPPRLPRPRPRPYVIPRP	-0.017
RRIRRRPPRLPRPRPRPIMVPRP	-0.371
RRIRPRPPRLPRPRPRPNAHPRP	0.247
RRIRFRPPRLPRPRPRPEWPPRP	0.459

Sequence	shrunken log2 fold change
RRIRGRPPRLPRPRPRPAEAPRP	1.08
RRIRERPPRLPRPRPRPESRPRP	-0.0773
RRIRMRPPRLPRPRPRPFSMPRP	-0.112
RRIRYRPPRLPRPRPRPYRSPRP	0.0135
RRIRERPPRLPRPRPRPHRVPRP	0.0121
RRIRERPPRLPRPRPRPRASPRP	-0.0261
RRIRNRPPRLPRPRPRPDMQPRP	-0.0295
RRIRLRPPRLPRPRPRPRVCPRP	0.0558
RRIRLRPPRLPRPRPRPWVCPRP	-0.0462
RRIRRRPPRLPRPRPRPLCEPRP	0.443
RRIRKRPPRLPRPRPRPGKSPRP	0.0157
RRIRSRPPRLPRPRPRPQVKPRP	-0.146
RRIRPRPPRLPRPRPRPSLPPRP	-0.187
RRIRYRPPRLPRPRPRPQEIPRP	-0.507
RRIRFRPPRLPRPRPRPQCAPRP	0.057
RRIRDRPPRLPRPRPRPKRIPRP	0.133
RRIRIRPPRLPRPRPRPCHCPRP	0.0274
RRIRCRPPRLPRPRPRPPRFPRP	1.34
RRIRKRPPRLPRPRPRPLYGPRP	-0.289
RRIRNRPPRLPRPRPRPSCWPRP	0.0544
